Measurements reported in article PMC3299734, “In Vivo Depletion of Lymphotoxin-Alpha Expressing Lymphocytes Inhibits Xenogeneic Graft-versus-Host-Disease” (PLoS ONE, 2012).

B1: TNFRII.Ig (TNFRII IgG fusion protein) (Fc fusion, human, UniProt P20333 23-257, looked up)
chain: LPAQVAFTPYAPEPGSTCRLREYYDQTAQMCCSKCSPGQHAKVFCTKTSDTVCDSCEDSTYTQLWNWVPECLSCGSRCSSDQVETQACTREQNRICTCRPGWYCALSKQEGCRLCAPLRKCRPGFGVARPGTETSDVVCKPCAPGTFSNTTSSTDICRPHQICNVVAIPGNASMDAVCTSTSPTRSMAPGAVHLPQPVSTRSQHTQPTPEPSTAPSTSFLLPMGPSPPAEGSTGD
modifications: labeled with SULFO-TAG NHS-ester as the detecting copy in the competitive blocking ELISA
notes: TNF receptor II (TNFRSF1B), human, fused to Ig; detected with anti-human Fc); also called TNFRII.Fc
B2: human LT-α3 (soluble lymphotoxin-α homotrimer) (ligand, UniProt P01374 35-205, looked up)
chain: LPGVGLTPSAAQTARQHPKMHLAHSTLKPAAHLIGDPSKQNSLLWRANTDRAFLQDGFSLSNNSLLVPTSGIYFVYSQVVFSGKAYSPKATSSPLYLAHEVQLFSSQYPFHVPLLSSQKMVYPGLQEPWLHSMYHGAAFQLTQGDQLSTHTDGIPHLVLSPSTVFFGAFAL
modifications: labeled with biotin in the competitive blocking ELISA only
notes: lymphotoxin-alpha, human, recombinant soluble homotrimer; also called recombinant LT-α3; soluble LT-α

How the values were obtained:
[1] = biological target: human LT-α1β2 (lymphotoxin-α/lymphotoxin-β heterotrimer) (human) (UniProt P01374); assay: ELISA; competitive blocking ELISA (Meso Scale Discovery read-out): test molecule serially diluted, incubated 2 hr with biotinylated LT-α3 or LT-α1β2, captured on streptavidin plates 30 min, then SULFO-TAG TNFRII.Ig or LT-βR.Ig added 30 min
[2] = biological target: human LT-α1β2 (lymphotoxin-α/lymphotoxin-β heterotrimer) (human) (UniProt P01374); assay: ELISA; wells coated overnight with 0.5-1 µg/ml human LT-α1β2 or LT-α3, blocked with PBS with 5 mg/ml BSA; LT-βR or TNFRII IgG fusion proteins added; detected with HRP goat F(ab')2 anti-human Fc and tetramethylbenzidine; EC50 by 4-parameter fit
[3] = biological target: B2; assay: as above; settings: both partners purified
[4] = biological target: B2; assay: ELISA; competitive blocking ELISA (Meso Scale Discovery read-out): test molecule serially diluted, incubated 2 hr with biotinylated LT-α3 or LT-α1β2, captured on streptavidin plates 30 min, then SULFO-TAG TNFRII.Ig or LT-βR.Ig added 30 min; settings: both partners purified
[5] = biological target: B1; assay: as above; settings: both partners purified

Q: For “Human LT-βR.Ig (LT-βR IgG fusion protein) (from UniProt P36941 31-227) (Fc fusion)”, which IC50 [1] is on record?
A: 100 pM

Q: And the EC50 [2]?
A: 48 pM

Q: Which results are given for B1?
A: EC50 [3]: 133 pM; IC50 [4]: 830 pM

Q: Does B2 bind [5]?
A: binds
